Experiment [1] addresses T1, His9G-tagged cynomolgus CD27 recombinant protein (cynomolgus, limits assumed).
T1 construct: In-house, transient transfection of HEK293 cells; also called Cyno CD27/His
T1 chain: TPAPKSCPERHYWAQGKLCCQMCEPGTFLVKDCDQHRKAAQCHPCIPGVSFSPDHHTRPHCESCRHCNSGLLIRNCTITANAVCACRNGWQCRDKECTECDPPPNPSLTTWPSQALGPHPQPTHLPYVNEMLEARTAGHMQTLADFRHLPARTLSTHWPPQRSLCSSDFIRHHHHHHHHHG
The experiment can be described thus: SPR Biacore 4000, antibody captured on anti-human Fc, His9G-tagged CD27 injected, 1:1 fit.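 Also: Double-referenced SPR (blank anti-Fc surface and buffer injection subtracted), KD derived from association and dissociation rate constants, with human and cynomolgus CD27 as analytes.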
Description: (§1) Flow cell spots modified with anti-human Fc antibody but lacking CD27 antibodies were used as reference. […] The chip surface was regenerated with a 30 second injection of 3M MgCl₂ after each injection cycle.
(§2) Data were double referenced by subtracting the response from a blank surface and that from a buffer injection and used for analyzing the rate constant of association (kₐ) and dissociation (kd), and the equilibrium dissociation constant KD. The resulting data sets were fitted with a Langmuir 1:1 binding model using the Biacore 4000 BIAevaluation software, version 1.0 (GE/Biacore).

Experiment [2] deals with T2, His9G-tagged human CD27 recombinant protein (human, UniProt P26842 21-191).
T2 construct: In-house, transient transfection of HEK293 cells; also called Human CD27/His
The description is as above.
Description: as §1, §2

In experiment [3] the target is T3, human CD27 (human, UniProt P26842 21-260).
T3 construct: also called hCD27; HsCD27
Put plainly: cell ELISA on transfected CHO cells.
Protocol: (§3) Purified antibodies were assayed for binding to human CD27 expressing CHOK1 cells using a cell-based ELISA format. Human CD27 expressing CHOK1 cells were plated in 96-well tissue-culture plates in 50 μl of DMEM/F12, 10% BCS (bovine calf serum) (CHO-K1 media). Cells were plated at either 2×10⁴ cells/well two days prior to the assay or 4×10⁴ cells/well one day prior to the assay. Media was removed from the wells prior to the assay followed by incubation of mAb in 100 μL fresh culture medium at a starting concentration of 10 μg/mL and 8 step 1:5 serial dilutions (hIgG4 antibodies) or starting concentration of 50 μg/mL and 8 step 1:5 serial dilutions (hIgG1 antibodies). The antibodies were incubated for 30-60 minutes at room temperature and washed 3 times with PBS/0.05% Tween 20 using a cell ELISA washing protocol on the Biotek EL405x Select CW plate washer.

The target in experiment [4] is T3, human CD27. Put plainly: cell ELISA on human CD27 CHOK1 cells, hIgG1. Background: An ELISA detects its analyte on a solid surface through an enzyme-linked reagent.
Protocol: as §3
The target of experiment [5] is T3, human CD27. The experiment can be described thus: flow cytometry MFI, CD8+ T cells of human PBMC, N=2 donors. (In general: A flow cytometer gives signals particle by particle.)
Protocol: (§4) Labeled cells were washed by re-suspending them in 150 ul of staining buffer (SB) followed by centrifugation at 300 g for 5 minutes. Cells were then resuspended in 100 ul of SB containing primary anti-CD27 antibodies at various concentrations, incubated in the dark at 4° C. for 30 minutes, followed by washing and centrifugation steps as previously described. […] Cells were incubated for 30 minutes at 4° C. in the dark, followed by washing and centrifugation steps. Next, cells were stained with a cocktail of phenotypic antibodies for surface markers (CD3, CD4, CD8, CD11b) and incubated for 30 minutes at 4° C. in the dark, followed by washing and centrifugation steps. […] Samples were acquired in a LSR-Fortessa flow cytometer (BD Biosciences) using the high throughput sampler and data analyzed by FlowJo software (Tree Star Inc).
Experiment [6] deals with T3, human CD27. The experiment can be described thus: flow cytometry MFI, CD4+ T cells of human PBMC, N=2 donors.
Protocol: as §4
The target in experiment [7] is T3, human CD27. The experiment can be described thus: flow cytometry on primary T cells.
Another experiment concerns the target human CD27 (A59T) (human, UniProt P26842 21-260). The experiment can be described thus: cell-based or functional assay.
Experiment [8] concerns the target T3, human CD27. Put plainly: cell-based or functional assay.
Experiment [9] concerns the target T4, Macaca mulatta CD27 (mmCD27) (Macaca mulatta (rhesus) / Macaca …, UniProt P26842 21-260 (human entry)).
T4 chain: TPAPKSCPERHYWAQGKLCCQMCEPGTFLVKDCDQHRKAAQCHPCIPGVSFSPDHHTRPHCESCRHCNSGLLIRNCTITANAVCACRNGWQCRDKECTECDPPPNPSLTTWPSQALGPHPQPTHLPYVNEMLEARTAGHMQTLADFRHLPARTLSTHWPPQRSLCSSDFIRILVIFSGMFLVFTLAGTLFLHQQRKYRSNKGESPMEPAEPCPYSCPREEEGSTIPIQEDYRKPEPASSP
Put plainly: cell-based or functional assay.

The target in experiment [10] is T5, human CD27-Fc fusion protein (human, UniProt P26842 21-191).
T5 construct: not shown: Fc part
The experiment can be described thus: SPR Biacore T200, CD27-Fc amine-coupled, antibody injected, 1:1 Langmuir fit. (In general: Surface plasmon resonance follows binding to a sensor surface in real time, without labels.)

Experiment [11] concerns the target T6, rhesus macaque CD27-Fc fusion protein (rhesus macaque, UniProt P26842 21-191 (human entry), limits assumed).
T6 construct: not shown: Fc part
T6 chain: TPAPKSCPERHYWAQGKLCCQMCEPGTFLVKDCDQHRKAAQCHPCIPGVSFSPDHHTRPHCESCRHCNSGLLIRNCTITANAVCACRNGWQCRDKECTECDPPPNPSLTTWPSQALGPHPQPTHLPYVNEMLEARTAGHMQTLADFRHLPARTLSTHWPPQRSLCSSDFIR
The description is as above.

For experiment [12], the target named is T7, human CD27 A59T-Fc fusion protein (human, UniProt P26842 21-191).
T7 construct: not shown: Fc part
T7 chain: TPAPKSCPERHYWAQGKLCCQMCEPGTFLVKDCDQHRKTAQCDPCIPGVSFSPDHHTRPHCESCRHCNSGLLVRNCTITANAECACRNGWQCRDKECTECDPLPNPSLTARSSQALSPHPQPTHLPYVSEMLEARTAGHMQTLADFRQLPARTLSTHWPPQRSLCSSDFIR
The experiment is described as above.

B1: hCD27.131A VH6VL8 huIgG1 (antibody, V domains shown)
VH: EIQLVQSGAEVKKPGASVKVSCKASGYTFTNYGMNWVKQAPGQGLKWMGWINTNTGEPTYAEEFKGRFTFTLDTSISTAYMELSSLRSEDTAVYYCAREGDAMDYWGQGTTVTVSS
VL: EIVLTQSPATLSASPGERVTLSCSASSSVSYMHWYQQKPGQAPKRWIYDTSKLASGVPARFSGSGSGTDYSLTISSMEPEDFAVYYCQQWNSYPFTFGQGTKLEIK
With B1, the Kd in [1] worked out at 56.5 nM; in experiment [2], 68.2 nM. Further, in the experiment with human CD27 [3], the “fold EC50 against 131AVH6VL6-hIgG1” value was no more than 2 fold. The EC50 with human CD27 [4] turned out to be 0.131 nM; with human CD27 [5], 0.124 nM; with human CD27 [6], 0.126 nM. In the experiment with human CD27 [7], the “EC50 relative to 131AVH6VL6-hIgG1” value is ≤ 10 % above the EC50 of 131AVH6VL6-hIgG1.

B2: hCD27.131A VH7VL6 huIgG1 (antibody, V domains shown)
VH: EIQLVQSGAEVKKPGASVKISCKASGYTFTNYGMNWVKQAPGQGLKWMGWINTNTGEPTYAEEFKGRFTFTLDTSATTAYLEISSLRSEDTAVYYCAREGDAMDYWGQGTTVTVSS
VL: EIVLTQSPATLSLSPGERATLSCSASSSVSYMHWYQQKPGQAPKRWIYDTSKLASGVPARFSGSGSGTDYSLTISSLEPEDFAVYYCQQWNSYPFTFGQGTKLEIK
As to B2, the figures for the Kd in experiment [1] and in experiment [2] were 34.8 nM and 41.3 nM, respectively. In addition, in the experiment with human CD27 [3], the “fold EC50 against 131AVH6VL6-hIgG1” value was no more than 2 fold. Besides, the EC50 with human CD27 [4] came out at 0.162 nM; in the experiment with human CD27 [5] it was 0.127 nM; in the experiment with human CD27 [6], 0.128 nM. Besides, the “EC50 relative to 131AVH6VL6-hIgG1” value in the experiment with human CD27 [7] is ≤ 10 % above the EC50 of 131AVH6VL6-hIgG1.

B3: hCD27.131A VH8VL8 huIgG1 (antibody, V domains shown)
VH: EIQLVQSGAEVKKPGASVKVSCKASGYTFTNYGMNWVKQAPGQGLKWMGWINTNTGEPTYAEEFKGRFTFTLDTSISTAYMELSSLRNEDTAVYYCAREGDAMDYWGQGTTVTVSS
VL: EIVLTQSPATLSASPGERVTLSCSASSSVSYMHWYQQKPGQAPKRWIYDTSKLASGVPARFSGSGSGTDYSLTISSMEPEDFAVYYCQQWNSYPFTFGQGTKLEIK
Regarding B3, the figures for the Kd in experiment [1] and in experiment [2] were 32.3 nM and 61 nM, respectively. Besides, in the experiment with human CD27 [3], the “fold EC50 against 131AVH6VL6-hIgG1” value was no more than 2 fold. Besides, the values for the EC50 in the experiment with human CD27 [4], with human CD27 [5] and with human CD27 [6] were 0.145 nM, 0.131 nM and 0.135 nM, respectively. Also, the “EC50 relative to 131AVH6VL6-hIgG1” value in the experiment with human CD27 [7] was ≤ 10 % above the EC50 of 131AVH6VL6-hIgG1.

B4: hCD27.131A VH7VL7 huIgG1 (antibody, V domains shown)
VH: EIQLVQSGAEVKKPGASVKISCKASGYTFTNYGMNWVKQAPGQGLKWMGWINTNTGEPTYAEEFKGRFTFTLDTSATTAYLEISSLRSEDTAVYYCAREGDAMDYWGQGTTVTVSS
VL: EIVLTQSPATLSLSPGERATLSCSASSSVSYMHWYQQKPGQAPKRWIYDTSKLASGVPARFSGSGSGTSYSLTISSLEPEDFATYYCQQWNSYPFTFGQGTKLEIK
As to B4, the Kd in [1] was 31.7 nM; in experiment [2] it was 38.9 nM. Also, the “fold EC50 against 131AVH6VL6-hIgG1” value with human CD27 [3] was no more than 2 fold. Moreover, the EC50 was 0.207 nM with human CD27 [4], 0.111 nM with human CD27 [5] and 0.113 nM with human CD27 [6]. The “EC50 relative to 131AVH6VL6-hIgG1” value with human CD27 [7] is ≤ 10 % above the EC50 of 131AVH6VL6-hIgG1.

B5: hCD27.131A VH7VL8 huIgG1 (antibody, V domains shown)
VH: EIQLVQSGAEVKKPGASVKISCKASGYTFTNYGMNWVKQAPGQGLKWMGWINTNTGEPTYAEEFKGRFTFTLDTSATTAYLEISSLRSEDTAVYYCAREGDAMDYWGQGTTVTVSS
VL: EIVLTQSPATLSASPGERVTLSCSASSSVSYMHWYQQKPGQAPKRWIYDTSKLASGVPARFSGSGSGTDYSLTISSMEPEDFAVYYCQQWNSYPFTFGQGTKLEIK
Regarding B5, the Kd in experiment [1] stood at 36.5 nM; in experiment [2] it was 44.9 nM. Besides, the “fold EC50 against 131AVH6VL6-hIgG1” value with human CD27 [3] was no more than 2 fold. Further, the concentration for a half-maximal effect (EC50) with human CD27 [4] was 0.144 nM; with human CD27 [5], 0.118 nM; in the experiment with human CD27 [6], 0.118 nM. Further, the “EC50 relative to 131AVH6VL6-hIgG1” value with human CD27 [7] is ≤ 10 % above the EC50 of 131AVH6VL6-hIgG1.

B6: hCD27.131A VH8VL7 huIgG1 (antibody, V domains shown)
VH: EIQLVQSGAEVKKPGASVKVSCKASGYTFTNYGMNWVKQAPGQGLKWMGWINTNTGEPTYAEEFKGRFTFTLDTSISTAYMELSSLRNEDTAVYYCAREGDAMDYWGQGTTVTVSS
VL: EIVLTQSPATLSLSPGERATLSCSASSSVSYMHWYQQKPGQAPKRWIYDTSKLASGVPARFSGSGSGTSYSLTISSLEPEDFATYYCQQWNSYPFTFGQGTKLEIK
As for B6, the dissociation constant (Kd) in experiment [1] came out at 44.1 nM; in [2], 63.3 nM. The “fold EC50 against 131AVH6VL6-hIgG1” value in the experiment with human CD27 [3] was no more than 2 fold. In addition, the 50% effective concentration (EC50) amounted to 0.262 nM in the experiment with human CD27 [4], 0.111 nM in the experiment with human CD27 [5] and 0.115 nM in the experiment with human CD27 [6]. Moreover, the “EC50 relative to 131AVH6VL6-hIgG1” value in the experiment with human CD27 [7] is ≤ 10 % above the EC50 of 131AVH6VL6-hIgG1.

B7: hCD27.131A VH8VL6 huIgG1 (antibody, V domains shown)
VH: EIQLVQSGAEVKKPGASVKVSCKASGYTFTNYGMNWVKQAPGQGLKWMGWINTNTGEPTYAEEFKGRFTFTLDTSISTAYMELSSLRNEDTAVYYCAREGDAMDYWGQGTTVTVSS
VL: EIVLTQSPATLSLSPGERATLSCSASSSVSYMHWYQQKPGQAPKRWIYDTSKLASGVPARFSGSGSGTDYSLTISSLEPEDFAVYYCQQWNSYPFTFGQGTKLEIK
As for B7, the equilibrium dissociation constant (Kd) is 46.6 nM in experiment [1] and 64.4 nM in experiment [2]. Also, in the experiment with human CD27 [3], the “fold EC50 against 131AVH6VL6-hIgG1” value is no more than 2 fold. For the same molecule, the EC50 with human CD27 [4] was determined as 0.298 nM; with human CD27 [5] it was 0.113 nM; with human CD27 [6], 0.124 nM. Further, the “EC50 relative to 131AVH6VL6-hIgG1” value with human CD27 [7] was ≤ 10 % above the EC50 of 131AVH6VL6-hIgG1.

B8: hCD27.15-4B IgG4 (antibody, V domains shown)
VH: QVQLVQSGAEVKKPGASVKVSCKASGFIIKATYMHWVRQAPGQRLEWMGRIDPANGETKYDPKFQVRVTITADTSASTAYMELSSLRSEDTAVYYCARYAWYFDVWGQGTLVTVSS
VL: DIQMTQSPSSLSASVGDRVTITCRASENIYSFLAWYQQKPGKAPKLLIYHAKTLAEGVPSRFSGSGSGTDFTLTISSLQPEDFATYYCQHYYGSPLTFGQGTKVEIKR
On to B8, for which the “NF-κB-luciferase reporter assay, Fold Change values at 2.5 µg/ml” value with human CD27 (A59T) came to 0.97 fold change; in the experiment with human CD27 [8], 1.82 fold change; in [9], 0.99 fold change.

B9: 131AVH6VL6-hIgG2 (antibody)
heavy: EIQLVQSGAEVKKPGASVKVSCKASGYTFTNYGMNWVKQAPGQGLKWMGWINTNTGEPTYAEEFKGRFTFTLDTSISTAYMELSSLRSEDTAVYYCAREGDAMDYWGQGTTVTVSSASTKGPSVFPLAPCSRSTSESTAALGCLVKDYFPEPVTVSWNSGALTSGVHTFPAVLQSSGLYSLSSVVTVPSSNFGTQTYTCNVDHKPSNTKVDKTVERKCCVECPPCPAPPVAGPSVFLFPPKPKDTLMISRTPEVTCVVVDVSHEDPEVQFNWYVDGVEVHNAKTKPREEQFNSTFRVVSVLTVVHQDWLNGKEYKCKVSNKGLPAPIEKTISKTKGQPREPQVYTLPPSREEMTKNQVSLTCLVKGFYPSDIAVEWESNGQPENNYKTTPPMLDSDGSFFLYSKLTVDKSRWQQGNVFSCSVMHEALHNHYTQKSLSLSPGK
light: EIVLTQSPATLSLSPGERATLSCSASSSVSYMHWYQQKPGQAPKRWIYDTSKLASGVPARFSGSGSGTDYSLTISSLEPEDFAVYYCQQWNSYPFTFGQGTKLEIKRTVAAPSVFIFPPSDEQLKSGTASVVCLLNNFYPREAKVQWKVDNALQSGNSQESVTEQDSKDSTYSLSSTLTLSKADYEKHKVYACEVTHQGLSSPVTKSFNRGEC
notes: also called 131A6 IgG2 (humanized)
On to B9, for which the Kd in experiment [10] was 6.4 nM; in experiment [11], 5.5 nM; in experiment [12] it was 8.2 nM.

Usually Kd stands for a measure of binding affinity in units of concentration. For orientation: EC50 means the midpoint of the concentration-response curve. A low value points to greater potency.
